For series [1], the target named is SpyCas9 (Streptococcus pyogenes, UniProt Q99ZW2 1-1368). Put plainly: EMSA; 10 mM Mg2+; EMSA: 1x NEBuffer 3.1 (100 mM NaCl, 50 mM Tris-HCl, 10 mM MgCl2, 100 ug/ml BSA, pH 7.9 at 25 C), 50 pM sgRNA, 40 min at 22 C, 6% native TBE gel in cold room. The following applies: protein: recombinant; label: 5'-32P; single guide RNA, GAAA tetraloop, three 3' stem-loops.
The target in series [2] is T1, SauCas9 (Staphylococcus aureus, UniProt J7RUA5 1-1053).
T1 sequence: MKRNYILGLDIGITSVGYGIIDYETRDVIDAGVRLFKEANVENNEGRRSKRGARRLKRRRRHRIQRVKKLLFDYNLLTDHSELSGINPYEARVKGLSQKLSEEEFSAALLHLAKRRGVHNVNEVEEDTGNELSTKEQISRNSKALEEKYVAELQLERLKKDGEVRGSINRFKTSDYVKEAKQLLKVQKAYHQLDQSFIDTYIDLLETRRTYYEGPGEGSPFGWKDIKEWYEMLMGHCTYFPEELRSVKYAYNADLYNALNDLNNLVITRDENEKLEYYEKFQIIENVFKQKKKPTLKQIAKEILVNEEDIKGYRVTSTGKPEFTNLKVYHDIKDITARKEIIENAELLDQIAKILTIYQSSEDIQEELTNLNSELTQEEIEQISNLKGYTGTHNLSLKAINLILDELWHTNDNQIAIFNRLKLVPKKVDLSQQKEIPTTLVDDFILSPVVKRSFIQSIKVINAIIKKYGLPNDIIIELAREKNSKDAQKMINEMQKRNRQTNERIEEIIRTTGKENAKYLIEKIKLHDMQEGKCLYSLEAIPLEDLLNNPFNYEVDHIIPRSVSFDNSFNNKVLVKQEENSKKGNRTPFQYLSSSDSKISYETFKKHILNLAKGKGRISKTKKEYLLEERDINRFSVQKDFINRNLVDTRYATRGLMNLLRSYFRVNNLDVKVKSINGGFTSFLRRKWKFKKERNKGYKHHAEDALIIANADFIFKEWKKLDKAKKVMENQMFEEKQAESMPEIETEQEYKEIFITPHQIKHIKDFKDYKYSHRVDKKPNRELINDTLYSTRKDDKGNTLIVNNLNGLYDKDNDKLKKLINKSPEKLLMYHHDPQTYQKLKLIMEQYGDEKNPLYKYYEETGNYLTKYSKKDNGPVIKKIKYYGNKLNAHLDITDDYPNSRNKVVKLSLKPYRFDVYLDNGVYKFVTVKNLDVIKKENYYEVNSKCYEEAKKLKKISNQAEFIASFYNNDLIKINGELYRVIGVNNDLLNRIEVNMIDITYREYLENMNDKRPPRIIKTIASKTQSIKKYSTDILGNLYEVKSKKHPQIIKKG
Described as above. The following applies: protein: recombinant; label: 5'-32P; single guide RNA, GAAA tetraloop, two 3' stem-loops.

SpyCas9, sequence (Q99ZW2 whole entry): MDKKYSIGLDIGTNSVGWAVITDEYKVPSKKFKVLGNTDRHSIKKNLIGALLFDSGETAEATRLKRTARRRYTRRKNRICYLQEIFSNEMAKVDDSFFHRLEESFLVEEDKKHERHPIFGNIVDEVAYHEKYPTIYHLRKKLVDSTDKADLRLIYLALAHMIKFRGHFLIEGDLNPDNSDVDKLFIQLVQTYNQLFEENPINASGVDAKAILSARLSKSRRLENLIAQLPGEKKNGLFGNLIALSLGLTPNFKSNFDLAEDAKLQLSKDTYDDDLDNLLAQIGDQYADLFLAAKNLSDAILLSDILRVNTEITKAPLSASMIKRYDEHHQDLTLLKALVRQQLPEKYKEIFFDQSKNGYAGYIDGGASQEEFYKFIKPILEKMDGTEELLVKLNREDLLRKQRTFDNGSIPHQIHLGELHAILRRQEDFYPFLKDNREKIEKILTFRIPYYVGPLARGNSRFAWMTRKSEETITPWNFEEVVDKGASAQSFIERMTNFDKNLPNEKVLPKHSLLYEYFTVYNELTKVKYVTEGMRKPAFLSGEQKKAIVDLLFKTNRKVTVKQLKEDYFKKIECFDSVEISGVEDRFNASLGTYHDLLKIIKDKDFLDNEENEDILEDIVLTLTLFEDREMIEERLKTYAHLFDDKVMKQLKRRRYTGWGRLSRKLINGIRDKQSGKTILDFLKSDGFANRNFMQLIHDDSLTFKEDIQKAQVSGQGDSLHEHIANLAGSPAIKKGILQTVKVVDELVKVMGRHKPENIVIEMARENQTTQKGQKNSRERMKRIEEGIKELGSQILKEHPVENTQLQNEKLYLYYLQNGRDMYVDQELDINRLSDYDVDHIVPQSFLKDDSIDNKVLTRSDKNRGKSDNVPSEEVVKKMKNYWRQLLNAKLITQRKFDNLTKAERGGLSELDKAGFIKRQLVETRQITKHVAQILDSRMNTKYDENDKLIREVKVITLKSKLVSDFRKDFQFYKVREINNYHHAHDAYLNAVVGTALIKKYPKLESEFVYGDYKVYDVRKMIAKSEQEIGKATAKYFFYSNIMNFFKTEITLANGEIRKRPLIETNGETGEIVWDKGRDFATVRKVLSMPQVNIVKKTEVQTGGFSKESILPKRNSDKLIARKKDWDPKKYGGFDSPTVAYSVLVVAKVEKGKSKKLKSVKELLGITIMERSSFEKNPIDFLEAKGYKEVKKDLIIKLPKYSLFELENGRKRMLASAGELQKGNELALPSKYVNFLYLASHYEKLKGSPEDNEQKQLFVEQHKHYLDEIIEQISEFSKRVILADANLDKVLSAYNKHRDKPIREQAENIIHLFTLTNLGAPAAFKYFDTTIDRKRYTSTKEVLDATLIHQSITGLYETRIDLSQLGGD

B1: S. pyogenes sgRNA (structured_RNA)
RNA: GUGAAAGUUAAUCGAACUGUGUUUUAGAGCUAGAAAUAGCAAGUUAAAAUAAGGCUAGUCCGUUAUCAACUUGAAAAAGUGGCACCGAGUCGGUGCUUUU
In the case of B1, the equilibrium dissociation constant (Kd) in series [1] came out at 0.29 ± 0.08 nM.

B2: S. aureus sgRNA (structured_RNA)
RNA: GUGAAAGUUAAUCGAACUGUGUUUUAGUACUCUGGAAACAGAAUCUACUAAAACAAGGCAAAAUGCCGUGUUUAUCUCGUCAACUUGUUGGCGAGAU
Regarding B2, in series [2], the Kd is 3.4 nM.

(Values after PMC6298560, “Staphylococcus aureus Cas9 is a multiple-turnover enzyme”.)
